Data: patent publication US20190002571A1, “INHIBITION OF CCL5 LIGAND BINDING TO CCR5 RECEPTOR AND ALTERATION OF CCR5/CCL5 AXIS SIGNALING IN INFLAMMATION, CANCER, AUTOIMMUNE, AND OTHER CONDITIONS” (CytoDyn Inc., priority 2015, published 2019)
Each block holds one molecule with its values, some of them ahead of it.

What was measured:
human CCR5 [1] = target: T1, human CCR5 (Homo sapiens, UniProt P51681); test: Migration (chemotaxis) assay with CHO-K1-hCCR5 cells, ATPlite readout; type: cell-based; design: Production of the full length protein was confirmed by western blot; expressed in transfected cells; host or cells: CHO-K1; conditions: for chemotactic response / direct induction of migration, agent alone: single agent over its concentration range (MVC 0.0045-10 μM; CCL5 0.0007-0.50 μM), FIG. 4, FIG. 5; for concentrations at which CCL5 induced migration was inhibited: constant dose of CCL5 0.005 μM
T1 sequence (P51681 whole entry): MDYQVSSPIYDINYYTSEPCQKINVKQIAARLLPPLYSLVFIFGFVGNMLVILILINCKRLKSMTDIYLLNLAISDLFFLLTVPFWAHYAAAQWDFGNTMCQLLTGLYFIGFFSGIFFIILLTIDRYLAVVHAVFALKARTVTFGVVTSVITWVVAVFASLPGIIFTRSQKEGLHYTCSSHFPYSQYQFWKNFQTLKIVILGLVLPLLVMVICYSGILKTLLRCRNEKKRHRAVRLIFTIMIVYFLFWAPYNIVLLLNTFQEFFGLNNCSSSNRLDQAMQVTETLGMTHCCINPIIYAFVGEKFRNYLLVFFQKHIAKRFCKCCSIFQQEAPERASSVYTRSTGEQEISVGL
Excerpt: This experiment was designed to investigate the role of PRO 140 on chemotaxis induced by CCL5 engagement of the CCR5 receptor on CHO-CCR5 target cells (CHO-K1 cell line).
a. Cell Lines: The CHO-K1 cell line was transfected with a human CCR5 expression plasmid and selected for expression. Production of the full length protein was confirmed by western blot. Fluorescence-activated cell sorting (FACS) analysis was used to sort for cells that expressed CCR5 on the surface and these cells were purified and expanded.
b. Methods: Migration assays were done in Multiscreen MC plates using CHO-K1-hCCR5 cells in the upper chamber and with media and test agents in the bottom chamber. The agents tested included: PRO 140, Maraviroc (MVC), CCL5, forskolin (FSK), and an IgG4 control as single agents, and PRO 140+CCL5, and Maraviroc+CCL5 as combined agents. The effects on the Chemotaxis Index were measured over a wide concentration range of the test substance. The Chemotaxis Index was calculated as the migration of cells into the lower chamber with a test substance divided by the migration of cells into the lower chamber without the test substance or with a control substance. Migration was measured using the ATPlite assay. All assays were performed in triplicate. Data analysis was determined by the Chemotaxis Index over a wide concentration range of the test substance. Dose ranges of test agents were as follows: PRO 140 was 0.0045-10 ug/ml; MVC was 0.0045-10 μM; CCL5 was 0.0007-0.50 μM; FSK was 0.0045-10 μM; IgG4 control was 0.0045-10 μg/ml.

human CCR5 [2] = target: T1, human CCR5; test: cAMP accumulation in primary CD4+ CCR5+ T cells (radioimmunoassay); type: cell-based; design: Primary CD4+ cell lines were prepared from healthy human donors and grown for 7-10 days prior to sorting for CD4+ CCR5+ T cells; endogenous in cells; host or cells: primary human CD4+ CCR5+ T cells (PHA/IL-2 expanded PBMC, FACS sorted); conditions: for cAMP accumulation (stimulated): single agent with rolipram 20 uM and forskolin 10 uM; for cAMP accumulation (stimulated) / cAMP accumulation (unstimulated, basal): PRO 140 1 ug/ml, CCL5 0.1 uM; for cAMP accumulation (unstimulated, basal): single agent with rolipram 20 uM, 37° C., 10 minutes; for effect on cAMP levels as single agent: single agents, CD4+ CCR5+ T cells
Method: The first set of experiments was designed to see if PRO 140 has antagonist and/or agonist activity for alternative signaling pathways known to be activated downstream of CCR5 engagement, such as G-protein mediated modulation of intracellular cyclic AMP (cAMP) or specific tyrosine kinase activation.
a. Cell Lines: Primary CD4+ cell lines were prepared from healthy human donors and grown for 7-10 days prior to sorting for CD4+ CCR5+ T cells. PBMC were stimulated with 1 ug/ml of PHA-L Sigma (2E6/well in 24 well plates). PHA lines were expanded using 30 U/ml IL-2 for 24 hours after stimulation and every other day until FACS sorting for CD4+ CCR5+ T cells (on days 7-10). FACS sorting was done using anti-human CD4-percp-Cy5.5 clone RPA-T4, Mouse IgG1k, at 25 ug/ml, with a working concentration of 0.125 ug/ml. Anti-human CCR5-PE clone NP-6G4, Mouse IgG1k, concentration 25 ug/ml, working concentration 1.25 ug/ml was used.
b. Methods: Cell lines were assayed for cAMP levels in the absence or presence of rolipram (20 uM, a cyclic nucleotide phosphodiesterase-4 (PDF-4) inhibitor) with either no addition (basal cAMP) or in response to forskolin (FSK) (10 uM, a non-specific activator of cAMP synthesis), PRO 140 (1 ug/ml), forskolin+PRO 140, CCL5 (0.1 uM), CCL5+ forskolin, or PRO 140+ CCL5+ forskolin. Incubations (0.5E6 cells/ml) were conducted at 37° C. for 10 minutes and then terminated by addition of ice-cold 7.5% trichloroacetic acid (TCA). cAMP was quantified by radioimmunoassay. Statistical significance was determined by unpaired, one-tailed t test analysis using GraphPad prism software, version 4.0

chemotactic response / direct induction of migration, agent alone (human CCR5 [1]): pronounced
cAMP accumulation (stimulated) (human CCR5 [2]; FIG. 2): 3800 fmoles cAMP/0.5E6 cells
cAMP accumulation (unstimulated, basal) (human CCR5 [2]; no forskolin, FIG. 1): 60 fmoles cAMP/0.5E6 cells
effect on cAMP levels as single agent (human CCR5 [2]): decreased cAMP levels
Molecule: CCL5: C-C chemokine ligand 5, inflammatory chemokine also known as RANTES; natural CCR5 ligand [reference compound]

Molecule: Maraviroc
concentration range in which the chemotactic response was significant (human CCR5 [1]; MVC alone, FIG. 4): above 0.01 μM
concentrations at which CCL5 induced migration was inhibited (human CCR5 [1]; FIG. 5): above 0.05 μM
chemotactic response / direct induction of migration, agent alone (human CCR5 [1]; listed as MVC): significant direct induction of migration

Chemotaxis Index (chemotactic response), agent alone (human CCR5 [1]; FIG. 4, PRO 140 alone, concentration range 0.0045-10 μg/ml): 0
Chemotaxis Index, agent alone (human CCR5 [1]; FIG. 6, PRO 140 alone, concentration range 0.0045-4.0 μg/ml): less than 3
concentrations at which CCL5 induced migration was inhibited (human CCR5 [1]; FIG. 6): above 0.4 μg/ml
cAMP accumulation (stimulated) in the presence of CCL5 (human CCR5 [2]; rolipram + PRO 140 1 ug/ml + CCL5 0.1 uM + forskolin 10 uM, FIG. 2): 5700 fmoles cAMP/0.5E6 cells
cAMP accumulation (unstimulated, basal) in the presence of CCL5 (human CCR5 [2]; rolipram + PRO 140 1 ug/ml + CCL5 0.1 uM, no forskolin, FIG. 1): 107 fmoles cAMP/0.5E6 cells
cAMP accumulation (stimulated) (human CCR5 [2]; FIG. 2): 6300 fmoles cAMP/0.5E6 cells
cAMP accumulation (unstimulated, basal) (human CCR5 [2]; no forskolin, FIG. 1): 110 fmoles cAMP/0.5E6 cells
effect on cAMP levels as single agent (human CCR5 [2]): no effect on cAMP levels
B1: PRO 140: a known humanized monoclonal antibody CCR5 antagonist with anti-HIV properties (antibody, chains of the INN, looked up, V domains shown)
VH: EVQLVESGGGLVKPGGSLRLSCAASGYTFSNYWIGWVRQAPGKGLEWIGDIYPGGNYIRNNEKFKDKTTLSADTSKNTAYLQMNSLKTEDTAVYYCGSSFGSNYVFAWFTYWGQGTLVTVSS
VL: DIVMTQSPLSLPVTPGEPASISCRSSQRLLSSYGHTYLHWYLQKPGQSPQLLIYEVSNRFSGVPDRFSGSGSGTDFTLKISRVEAEDVGVYYCSQSTHVPLTFGQGTKVEIK
effect on CCL5 triggered decrease in cAMP levels (human CCR5 [2]; PRO 140 combined with CCL5): diminished the effects of CCL5 on decreasing cAMP
